Test results: PMC4992975, “Pyrophosphate-Dependent ATP Formation from Acetyl Coenzyme A in Syntrophus aciditrophicus, a New Twist on ATP Formation” (mBio, 2016)

How the values were obtained:
[1] = substrate: CC(=O)O; test: purified protein; details: acetyl-CoA-forming direction (acetate limiting), 37°C
[2] = substrate: O=P(O)(O)OP(=O)(O)O; test: ATP formation coupled to hexokinase / glucose-6-phosphate dehydrogenase, NADP+ reduction; format: biochemical, Syntrophus aciditrophicus; details: acetate-forming direction (pyrophosphate limiting), AMP and acetyl-CoA co-substrates, 37°C, enzyme purified without ammonium sulfate fractionation
Text: ATP formation coupled to hexokinase / glucose-6-phosphate dehydrogenase, NADP+ reduction on Purified Acs1 (native AMP-forming, acetyl-CoA synthetase)

[3] = substrate: CC(C)(COP(=O)(O)OP(=O)(O)OC[C@H]1O[C@@H](n2cnc3c(N)ncnc32)[C@H](O)[C@@H]1OP(=O)(O)O)[C@@H](O)C(=O)NCCC(=O)NCCS; test: coupled enzyme assay, NAD(H) oxidation; format: biochemical, Syntrophus aciditrophicus; details: acetyl-CoA-forming direction (CoA limiting), 37°C
Text: coupled enzyme assay, NAD(H) oxidation on Purified Acs1 (native AMP-forming, acetyl-CoA synthetase)

[4] = substrate: CC(C)(COP(=O)(O)OP(=O)(O)OC[C@H]1O[C@@H](n2cnc3c(N)ncnc32)[C@H](O)[C@@H]1OP(=O)(O)O)[C@@H](O)C(=O)NCCC(=O)NCCS; test: coupled enzyme assay, NAD(H) oxidation; format: biochemical, Syntrophus aciditrophicus; details: acetyl-CoA-forming direction (CoA limiting), 37°C; remark: listed apart in the source
Text: coupled enzyme assay, NAD(H) oxidation on Recombinant Acs1 (SYN_02635 gene product)

B1: Purified Acs1 (native AMP-forming, acetyl-CoA synthetase) (Syntrophus aciditrophicus SB) (protein)
chain: MGEESILKEFYPVPERIKAKAWVKGRGEYDKLYAESIADSAAWWAKQADEILTFYKKWDKVEDFNFDIRKGPIHVKYFEGAKLNVSYNCLDRHLATKGDKVAIQWEGNEPGEQKAYTYKDLHTEVCKFANVLKKHGIKRGDRVCIYTPMVVEAAIAMLACTRIGAVHAIVFGGFSSDALAVRIQDAQAKLLVVCDGTFRGAKAVPQKKDADVALKECPTIEKVIVVRRVGDKIACDMTPGRDLWWHDEMATVDANCECEQMDAEDTLFILYTSGSTGQPKGALHTTAGYLLYAAYTSKFAFDLHDEDIHWCTADIGWVTGHSYVVYGPLALGATSIMFEGVPNYPTYSRFWQVVEKYKVTSFYTAPTAIRAIAKEGDEWLKGIDLSSLRVLSSVGEPLNPEAWQWFYEKIGNSQCPIVDTWWQTETGGHMILPLPGAIDIKPAKPALPIMGVIPTLVDDQTGEELKNMEANGALCFKTAWPGITRTIYGDHKRYEETYFEPYPGNYFSGDGALRDKDGYYRITGRIDDVINVSGHRMGTAEIEATLNAHEKVAESAVVGYPHEVKGQSIYAYITLKTGFEPSEDLKKELTQYVRTIIGPIATPEKIQWADGLPKTRSGKIMRRILKKVAANELGDLGDTSTLADPAVVDDLVKNRL
notes: native, purified from crotonate-grown pure-culture cell extracts; single band ~74 kDa on denaturing gel; untagged
Work on B1 yielded a Km [1] of 590 ± 200 µM, a Km [2] of 250 ± 20 µM and a Km [3] of 260 ± 100 µM.

B2: Recombinant Acs1 (SYN_02635 gene product) (Syntrophus aciditrophicus SB) (protein)
chain: MGEESILKEFYPVPERIKAKAWVKGRGEYDKLYAESIADSAAWWAKQADEILTFYKKWDKVEDFNFDIRKGPIHVKYFEGAKLNVSYNCLDRHLATKGDKVAIQWEGNEPGEQKAYTYKDLHTEVCKFANVLKKHGIKRGDRVCIYTPMVVEAAIAMLACTRIGAVHAIVFGGFSSDALAVRIQDAQAKLLVVCDGTFRGAKAVPQKKDADVALKECPTIEKVIVVRRVGDKIACDMTPGRDLWWHDEMATVDANCECEQMDAEDTLFILYTSGSTGQPKGALHTTAGYLLYAAYTSKFAFDLHDEDIHWCTADIGWVTGHSYVVYGPLALGATSIMFEGVPNYPTYSRFWQVVEKYKVTSFYTAPTAIRAIAKEGDEWLKGIDLSSLRVLSSVGEPLNPEAWQWFYEKIGNSQCPIVDTWWQTETGGHMILPLPGAIDIKPAKPALPIMGVIPTLVDDQTGEELKNMEANGALCFKTAWPGITRTIYGDHKRYEETYFEPYPGNYFSGDGALRDKDGYYRITGRIDDVINVSGHRMGTAEIEATLNAHEKVAESAVVGYPHEVKGQSIYAYITLKTGFEPSEDLKKELTQYVRTIIGPIATPEKIQWADGLPKTRSGKIMRRILKKVAANELGDLGDTSTLADPAVVDDLVKNRL
With B2 the Km [1] was 960 ± 20 µM and the Km [4] was 210 ± 50 µM.
